In paper PMC12951562 (2026):
Non-standard residues stand in square brackets, D forms with d. No end group written: not given here. pY = N[C@@H](Cc1ccc(OP(=O)(O)O)cc1)C(=O)O

T1: Ac-pYEEIE-NH2 (SMILES CC[C@H](C)[C@H](NC(=O)[C@H](CCC(=O)O)NC(=O)[C@H](CCC(=O)O)NC(=O)[C@H](Cc1ccc(OP(=O)(O)O)cc1)NC(C)=O)C(=O)N[C@@H](CCC(=O)O)C(N)=O)
T1 chain: Ac-[pY]EEIE-NH2

T2: caffeic acid-pYEEIE
T2 chain: {caffeic acid}-[pY]EEIE


Legend:
[1] = target: T1, Ac-pYEEIE-NH2; assay: competition binding assay (SH2scan, qPCR)
[2] = target: T2, caffeic acid-pYEEIE; assay: competition binding assay (SH2scan, qPCR)

Kd [2] [µM]	Binder	Kd [1] [µM]
–	YES SH2 (protein) AEEWYFGKMGRKDAERLLLNPGNQRGIFLVRESETTKGAYSLSIRDWDEIRGDNVKHYKIRKLDNGGYYITTRAQFDTLQKLVKHYTEHADGLCHKLTTVCPTV	3.8
0.00053	FYN SH2 (protein) AEEWYFGKLGRKDAERQLLSFGNPRGTFLIRESETTKGAYSLSIRDWDDMKGDHVKHYKIRKLDNGGYYITTRAQFETLQQLVQHYSERAAGLCCRLVVPCHKG	3.3
–	FES SH2 (protein) EQLWYHGAIPRAEVAELLVHSGDFLVRESQGKQEYVLSVLWDGLPRHFIIQSLDNLYRLEGEGFPSIPLLIDHLLSTQQPLTKKSGVVLHRAVPKD	4.2
–	PIK3R3 C-terminal SH2 (protein) WFVEDINRVQAEDLLYGKPDGAFLIRESSKKGCYACSVVADGEVKHCVIYSTARGYGFAEPYNLYSSLKELVLHYQQTSLVQHNDSLNVRLAYPV	14.9
